The record followed here is patent US20190218277A1 (Chugai, published 2019).

For assay [1], the target named is T1, Recombinant soluble E protein (0.8E-His) from DENV-3 (DENV-3, UniProt P27915 281-673).
T1 construct: also called DENV-3 E protein; DV3

The target of assay [2] is T2, Recombinant soluble E protein (0.8E-His) from DENV-2 (DENV-2, UniProt P14340 281-675).
T2 construct: also called DENV-2 E protein; DV2
The assay is described as follows: SPR, Biacore T200.

Assay [3] addresses T3, Recombinant soluble E protein (0.8E-His) from DENV-4 (DENV-4, UniProt P09866 280-674).
T3 construct: also called DENV-4 E protein; DV4
The assay is described as follows: SPR, Biacore T200. (In general: In SPR one partner is held on a chip, and binding of the other changes the refractive index at the surface.)

The target of assay [4] is T4, Recombinant soluble E protein (0.8E-His) from DENV-1 (DENV-1, UniProt P27909 281-675).
T4 construct: also called DENV-1 E protein; DV1

B1: DG_3CH1049-SG182/3CL668-SK1 (antibody, V domains shown)
VH: QVQLVQSGAEVKKPGASVKVSCKASGYTFTSYYMHWVRQAPGQGLEWMGVINPRGGSRRSAQKFQGRVTMTRDTSTSTVYMELSSLRSEDTAVYYCARGGEALFYDSYTTPFDGGSWWFDPWGQGSLVTVSS
VL: DIQLTQSPSSLSASVGDRVTITCQASQDIRKYLNWYQQKPGKAPKLLIYDASNLKTGVPSRFSGSGSGTDFTLTISSLQPEDVATYYCQQFEDLPITFGQGTRLQIKR
In general, Kd refers to the concentration at which binding is half-saturated. Regarding B1, the equilibrium dissociation constant (Kd) in assay [1] came out at 0.00155 nM; in assay [4], 1.7 nM. Moreover, the binding result in assay [2] and in assay [3] was “binds” throughout.

B2: DG_3CH1049-SG182/3CL666-SK1 (antibody, V domains shown)
VH: QVQLVQSGAEVKKPGASVKVSCKASGYTFTSYYMHWVRQAPGQGLEWMGVINPRGGSRRSAQKFQGRVTMTRDTSTSTVYMELSSLRSEDTAVYYCARGGEALFYDSYTTPFDGGSWWFDPWGQGSLVTVSS
VL: DIQLTQSPSSLSASVGDRVTITCQASQEIRKYLNWYQQKPGKAPKLLIYDASNLKTGVPSRFSGSGSGTDFTLTISSLQPEDVATYYCQQFDDLPITFGQGTRLQIKR
Turning to B2, the values for the equilibrium dissociation constant (Kd) in assay [1] and in assay [4] were 0.00295 nM and 1.72 nM, respectively. Further, the binding result in assay [2] and in assay [3] was “binds” in each case.

B3: DG_3CH1046-SG182/3CL666-SK1 (antibody, V domains shown)
VH: QVQLVQSGAEVKKPGASVKVSCKASGYTFTSYYMHWVRQAPGQGLEWMGVINPRGGSRRSAQKFQGRVTMTRDTSTSTVYMELSSLRSEDTAVYYCARGGRALFYDSYTTPFDGGSWWFDPWGQGSLVTVSS
VL: DIQLTQSPSSLSASVGDRVTITCQASQEIRKYLNWYQQKPGKAPKLLIYDASNLKTGVPSRFSGSGSGTDFTLTISSLQPEDVATYYCQQFDDLPITFGQGTRLQIKR
For the molecule B3, the equilibrium dissociation constant (Kd) in assay [1] is 0.00047 nM; in assay [4], 1.52 nM. For the same molecule, the binding result in assay [2] and in assay [3] was “binds” in each case.

B4: DG_3CH1049-SG182/3CL633-SK1 (antibody, V domains shown)
VH: QVQLVQSGAEVKKPGASVKVSCKASGYTFTSYYMHWVRQAPGQGLEWMGVINPRGGSRRSAQKFQGRVTMTRDTSTSTVYMELSSLRSEDTAVYYCARGGEALFYDSYTTPFDGGSWWFDPWGQGSLVTVSS
VL: DIQLTQSPSSLSASVGDRVTITCQASQDIRKYLNWYQQKPGKAPKLLIYDASNLKTGVPSRFSGSGSGTDFTLTISSLQPEDVATYYCQQFDDLPITFGQGTRLQIKR
For the molecule B4, the Kd in assay [1] came out at 0.0041 nM; in assay [4], 1.73 nM. Besides, the binding result in assay [2] and in assay [3] was “binds” throughout.

B5: DG_3CH1046-SG182/3CL668-SK1 (antibody, V domains shown)
VH: QVQLVQSGAEVKKPGASVKVSCKASGYTFTSYYMHWVRQAPGQGLEWMGVINPRGGSRRSAQKFQGRVTMTRDTSTSTVYMELSSLRSEDTAVYYCARGGRALFYDSYTTPFDGGSWWFDPWGQGSLVTVSS
VL: DIQLTQSPSSLSASVGDRVTITCQASQDIRKYLNWYQQKPGKAPKLLIYDASNLKTGVPSRFSGSGSGTDFTLTISSLQPEDVATYYCQQFEDLPITFGQGTRLQIKR
B5: the equilibrium dissociation constant (Kd) was 0.000559 nM in assay [1] and 1.56 nM in assay [4]. Besides, the binding result in assay [2] and in assay [3] was “binds” in each case.

B6: DG_3CH1000-SG1106/3CL-SK1 (antibody)
heavy: QVQLVQSGPDVEKPGASVKVSCKASGYTFTSYYMHWVRQAPGQGLEWMGVINPRGGSRRSAQKFQGRITMTRDTSTSTVYMELSSLRSEDTAVYYCARGGRALFYDSYTTPFDGGSWWFDPWGQGSLVTVSSASTKGPSVFPLAPSSKSTSGGTAALGCLVKDYFPEPVTVSWNSGALTSGVHTFPAVLQSSGLYSLSSVVTVPSSSLGTQTYICNVNHKPSNTKVDKRVEPKSCDKTHTCPPCPAPEAAGGPSVFLFPPKPKDTLMISRTPEVTCVVVDVSHEDPEVKFNWYVDGVEVHNAKTKPREEQYNSTYRVVSVLTVLHQDWLNGKEYKCKVSNAALPAPISKTISKAKGQPREPQVYTLPPSREEMTKNQVSLTCLVKGFYPSDIAVEWESNGQPENNYKTTPPVLDSDGSFFLYSKLTVDKSRWQQGNVFSCSVLHEALHAHYTRKELSLSP
light: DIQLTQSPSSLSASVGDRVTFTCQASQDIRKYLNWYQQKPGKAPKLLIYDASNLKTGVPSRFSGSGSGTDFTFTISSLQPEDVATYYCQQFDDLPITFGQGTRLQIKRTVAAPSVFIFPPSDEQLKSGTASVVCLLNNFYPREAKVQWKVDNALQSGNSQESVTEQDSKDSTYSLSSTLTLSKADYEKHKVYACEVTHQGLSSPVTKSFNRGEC
For the molecule B6, the Kd in assay [1] worked out at 0.000299 nM; in assay [4], 1.84 nM. Besides, the binding result in assay [2] and in assay [3] was “binds” throughout.

B7: DG_3CH953-SG1106/3CL012-SK1 (antibody)
heavy: QVQLVQSGPDVEKPGASVKVSCKASGYTFTSNYIHWVRQAPGQGLEWMGVINPRGGSRRSAQKFQGRITMTRDTSTSTVYMELSSLRSEDTAVYYCARGGRALFYDSYTTPFDGGSWWFDPWGQGSLVTVSSASTKGPSVFPLAPSSKSTSGGTAALGCLVKDYFPEPVTVSWNSGALTSGVHTFPAVLQSSGLYSLSSVVTVPSSSLGTQTYICNVNHKPSNTKVDKRVEPKSCDKTHTCPPCPAPEAAGGPSVFLFPPKPKDTLMISRTPEVTCVVVDVSHEDPEVKFNWYVDGVEVHNAKTKPREEQYNSTYRVVSVLTVLHQDWLNGKEYKCKVSNAALPAPISKTISKAKGQPREPQVYTLPPSREEMTKNQVSLTCLVKGFYPSDIAVEWESNGQPENNYKTTPPVLDSDGSFFLYSKLTVDKSRWQQGNVFSCSVLHEALHAHYTRKELSLSP
light: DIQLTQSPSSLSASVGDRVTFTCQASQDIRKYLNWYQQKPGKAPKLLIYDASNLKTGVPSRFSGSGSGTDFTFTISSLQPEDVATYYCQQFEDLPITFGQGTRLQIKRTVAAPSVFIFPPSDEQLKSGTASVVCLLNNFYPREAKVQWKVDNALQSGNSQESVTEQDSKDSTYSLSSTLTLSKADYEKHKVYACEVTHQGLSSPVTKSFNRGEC
Consider B7, for which the dissociation constant Kd worked out at 0.0106 nM in assay [1] and 1.89 nM in assay [4]. Also, the binding result in assay [2] and in assay [3] was “binds” in each case.
